Molecular target: chimeric-IL-1Ra (IL-1beta propeptide residues 1-120, HindIII-derived Lys-Leu linker, mature IL-1Ra)

B1: neutrophil elastase (Athens Research & Technology) (protein)
chain: IVGGRRARPHAWPFMVSLQLRGGHFCGATLIAPNFVMSAAHCVANVNVRAVRVVLGAHNLSRREPTRQVFAVQRIFENGYDPVNLLNDIVILQLNGSATINANVQVAQLPAQGRRLGNGVQCLAMGWGLLGRNRGIASVLQELNVTVVTSLCRRSNVCTLVRGRQAGVCFGDSGSPLVCNGLIHGIASFVRGGCASGLYPDAFAPVAQFVNWIDSIIQ
cleavage of chimeric-IL-1Ra, Western blot with anti-IL-1Ra antibody: chimeric-IL-1Ra is cleaved to form a ˜20 kDa fragment, comparable in size to IL-1Ra
